Positions of bridges follow the written chain, without caps; N, C: chain ends. No end group written: not given here.
T1: Recombinant Human Erythropoietin R Fc Chimera Protein, CF (R&D systems, 963-ER-50) (human, UniProt P19235 25-250)
T1 construct: Bought reagent; also called EPO receptor immobilized on magnetic beads; Fc part of the bought chimera not given
T1 sequence (looked up): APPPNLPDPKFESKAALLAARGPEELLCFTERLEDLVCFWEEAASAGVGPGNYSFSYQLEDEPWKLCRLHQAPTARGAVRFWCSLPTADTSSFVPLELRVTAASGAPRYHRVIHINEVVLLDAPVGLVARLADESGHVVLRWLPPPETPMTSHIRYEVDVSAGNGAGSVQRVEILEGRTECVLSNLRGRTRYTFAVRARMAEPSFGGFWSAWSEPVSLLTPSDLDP


Key:
Met = Met (Homo sapiens, UniProt P08581); conditions: reported; cited from earlier work
HGF-Erk-SRE pathway [1] = assay: SRE luciferase reporter assay of aMD4dY-leucine zipper fusion dimers (Example 2); format: cell-based; conditions: HEK293E cells with SRE reporter; cell-free expression reaction solution at 25- to 625-fold dilution; overnight stimulation; HGF 0 to 100 ng/mL as comparator; FIGS. 8-13
Method: (§1) The dimer of each aMD4dY-leucine zipper fusion was evaluated by luciferase assay. To 25 μL of Opti-MEM medium (Thermo Fisher Scientific), 0.6 μL of Attractene Transfection Reagent (QIAGEN) was added and incubated at room temperature for 5 minutes. To the above mixed solution, a mixed solution of 25 μL of Opti-MEM and 1 μL of SRE reporter vector (QIAGEN) was added and incubated at room temperature for 20 minutes. This mixed solution was added to a 96-well plate, HEK293E cells were seeded thereon at 40,000 cells/well, and incubated overnight at 37° C. in a 5% CO2 incubator. After transfection, all the culture supernatant was removed, and 100 μL of Opti-MEM medium (evaluation basal medium), containing 0.5% FBS (Thermo Fisher Scientific), 1% non-essential amino acid solution (Thermo Fisher Scientific), and penicillin-streptomycin (Nacalai Tesque), was added thereto, which was cultured at 37° C. for 4 hours to starve the cells.
(§2) To the evaluation basal medium, 0 to 100 ng/mL HGF was added, or the cell-free expression reaction solution was added at a 25- to 625-fold dilution with respect to the medium, and 100 μL of the evaluation basal medium was added to the cells. The cells were stimulated by culturing overnight at 37° C. in a 5% CO2 incubator.
(§3) Dual-Luciferase Reporter Assay System (Promega) was used for signal intensity detection. The medium supernatant in an amount of 100 μL was removed, 50 μL of Glo reagent was added, and cells were lysed at room temperature for 10 minutes. Activation of the HGF-Erk-SRE pathway was quantified by detecting Firefly luciferase luminescence from cell lysates with a plate reader. Subsequently, 50 μL of Glo & Stop reagent solution was added, and after 10 minutes, luminescence of Renilla luciferase, an internal standard, was detected to quantify the cell count. The signal activity of each sample was quantified as SRE activity=(luminescence intensity of Firefly luciferase)/(luminescence intensity of Renilla luciferase). A signal activity value relative to a sample without an addition of evaluation compound was obtained and defined as relative reporter activity.

HGF-Erk-SRE pathway [2] = assay: SRE luciferase reporter assay of cell-free translation products from ribosome display DNAs (Example 4); format: cell-based; conditions: HEK293E cells with SRE reporter; cell-free translation product at 25- to 625-fold dilution; HGF comparator; FIG. 16
Method: For cell-free translation, to 20 ng of each DNA, 2.5 μL of Solution I, 0.25 μL of Solution II, 0.5 μL of Solution III, and 1.75 μL of water were added, and the mixture was incubated at 37° C. for 6 hours to carry out the translation reaction.
as §1, with “Reporter assays were carried out as follows.” for “The dimer of each aMD4dY-leucine zipper fusion was evaluated by luciferase assay.”
as §2, with “or the above cell-free expression” for “or the cell-free expression”
as §3, with “The medium supernatant in an amount of 100 μL was removed, 50 μL of Glo reagent was added, and cells were lysed at room temperature for 10 minutes.” left out, “A signal activity value relative to a sample without an addition of evaluation compound was obtained and defined as relative reporter activity.” left out

EpoR = EpoR (Homo sapiens, UniProt P19235); assay: PathHunter eXpress EpoR-JAK2 Functional Assay of EMP-leucine zipper fusion dimer (Example 3); format: cell-based; conditions: diluted cell-free expression reaction solution; 3 hours stimulation; No DNA negative control; FIG. 14
Method: The ability of the EMP-leucine zipper fusion dimer to activate EpoR was assessed using PathHunter® eXpress EpoR-JAK2 Functional Assay Kit (DiscoveRx).
Cells for EPO activity evaluation contained in the PathHunter® eXpress EpoR-JAK2 Functional Assay Kit were seeded in a 96-well plate and cultured for 24 hours at 37° C. under 5% CO2. A cell-free expression reaction solution containing the EMP-leucine zipper fusion were diluted and added to the cells. […] To the cells stimulated at room temperature for 3 hours, the prepared Substrate Reagent was added and incubated for 60 minutes. Chemiluminescence intensity was quantified with a Nivo plate reader (Perkin Elmer).

[3] = target: T2, Recombinant Human HGFR/c-MET Fc Chimera Protein (R&D systems, 8614-MT-100) (human, UniProt P08581 25-932); assay: ribosome display selection on c-MET Fc chimera on magnetic beads, from a 1:50:50 DNA mix; DNA length analysis of the recovered cDNA
T2 construct: Bought reagent; also called c-Met immobilized on magnetic beads; Fc part of the bought chimera not given

[4] = target: T1, Recombinant Human Erythropoietin R Fc …; assay: ribosome display selection on Erythropoietin R Fc chimera on magnetic beads, from a 1:50:50 DNA mix; DNA length analysis of the recovered cDNA
Method: Immobilization of target molecules to magnetic beads was carried out. […] The magnetic beads were washed three times with 100 μL of 1× TBS-T buffer, then resuspended in 10 μL of 1× TBS-T buffer and allowed to stand on ice.

T2 sequence (P08581 25-932, change not shown): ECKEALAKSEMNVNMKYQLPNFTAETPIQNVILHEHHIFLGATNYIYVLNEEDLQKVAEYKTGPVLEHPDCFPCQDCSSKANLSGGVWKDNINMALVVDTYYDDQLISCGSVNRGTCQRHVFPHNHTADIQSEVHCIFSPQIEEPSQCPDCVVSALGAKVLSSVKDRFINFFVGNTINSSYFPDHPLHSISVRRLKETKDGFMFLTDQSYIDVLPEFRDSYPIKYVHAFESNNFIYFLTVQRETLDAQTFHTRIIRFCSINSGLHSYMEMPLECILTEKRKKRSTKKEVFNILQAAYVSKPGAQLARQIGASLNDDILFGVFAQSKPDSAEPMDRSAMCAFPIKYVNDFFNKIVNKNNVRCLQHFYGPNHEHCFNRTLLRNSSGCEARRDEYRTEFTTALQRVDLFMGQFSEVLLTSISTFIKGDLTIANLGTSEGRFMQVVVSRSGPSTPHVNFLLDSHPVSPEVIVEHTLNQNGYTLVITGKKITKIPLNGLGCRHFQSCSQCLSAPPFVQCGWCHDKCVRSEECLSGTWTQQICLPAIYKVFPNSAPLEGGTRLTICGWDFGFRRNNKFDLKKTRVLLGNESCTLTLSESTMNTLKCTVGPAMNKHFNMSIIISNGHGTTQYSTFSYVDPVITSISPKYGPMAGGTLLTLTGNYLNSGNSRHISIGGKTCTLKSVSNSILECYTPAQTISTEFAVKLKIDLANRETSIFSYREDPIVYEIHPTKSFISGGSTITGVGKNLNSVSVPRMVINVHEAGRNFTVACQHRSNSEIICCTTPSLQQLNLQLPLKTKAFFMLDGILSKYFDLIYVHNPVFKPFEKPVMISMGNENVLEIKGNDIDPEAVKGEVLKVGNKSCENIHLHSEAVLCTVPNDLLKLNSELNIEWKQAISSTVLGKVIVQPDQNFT
EpoR, sequence (P19235 25-508): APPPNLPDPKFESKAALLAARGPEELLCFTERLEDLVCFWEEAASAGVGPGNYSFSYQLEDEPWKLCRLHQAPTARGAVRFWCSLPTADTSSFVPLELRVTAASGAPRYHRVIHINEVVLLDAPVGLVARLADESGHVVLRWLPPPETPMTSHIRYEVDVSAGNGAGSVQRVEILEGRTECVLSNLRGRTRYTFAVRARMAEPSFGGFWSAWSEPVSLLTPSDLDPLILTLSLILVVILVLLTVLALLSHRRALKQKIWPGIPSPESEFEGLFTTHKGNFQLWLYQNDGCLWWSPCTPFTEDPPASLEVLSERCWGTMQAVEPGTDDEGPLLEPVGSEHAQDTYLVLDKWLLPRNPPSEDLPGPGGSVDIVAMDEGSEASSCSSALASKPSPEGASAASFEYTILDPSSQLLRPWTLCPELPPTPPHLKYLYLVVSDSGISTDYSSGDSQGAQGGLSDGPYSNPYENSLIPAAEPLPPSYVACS
EpoR, sequence (O60674 whole entry partner, the tested form may be a part): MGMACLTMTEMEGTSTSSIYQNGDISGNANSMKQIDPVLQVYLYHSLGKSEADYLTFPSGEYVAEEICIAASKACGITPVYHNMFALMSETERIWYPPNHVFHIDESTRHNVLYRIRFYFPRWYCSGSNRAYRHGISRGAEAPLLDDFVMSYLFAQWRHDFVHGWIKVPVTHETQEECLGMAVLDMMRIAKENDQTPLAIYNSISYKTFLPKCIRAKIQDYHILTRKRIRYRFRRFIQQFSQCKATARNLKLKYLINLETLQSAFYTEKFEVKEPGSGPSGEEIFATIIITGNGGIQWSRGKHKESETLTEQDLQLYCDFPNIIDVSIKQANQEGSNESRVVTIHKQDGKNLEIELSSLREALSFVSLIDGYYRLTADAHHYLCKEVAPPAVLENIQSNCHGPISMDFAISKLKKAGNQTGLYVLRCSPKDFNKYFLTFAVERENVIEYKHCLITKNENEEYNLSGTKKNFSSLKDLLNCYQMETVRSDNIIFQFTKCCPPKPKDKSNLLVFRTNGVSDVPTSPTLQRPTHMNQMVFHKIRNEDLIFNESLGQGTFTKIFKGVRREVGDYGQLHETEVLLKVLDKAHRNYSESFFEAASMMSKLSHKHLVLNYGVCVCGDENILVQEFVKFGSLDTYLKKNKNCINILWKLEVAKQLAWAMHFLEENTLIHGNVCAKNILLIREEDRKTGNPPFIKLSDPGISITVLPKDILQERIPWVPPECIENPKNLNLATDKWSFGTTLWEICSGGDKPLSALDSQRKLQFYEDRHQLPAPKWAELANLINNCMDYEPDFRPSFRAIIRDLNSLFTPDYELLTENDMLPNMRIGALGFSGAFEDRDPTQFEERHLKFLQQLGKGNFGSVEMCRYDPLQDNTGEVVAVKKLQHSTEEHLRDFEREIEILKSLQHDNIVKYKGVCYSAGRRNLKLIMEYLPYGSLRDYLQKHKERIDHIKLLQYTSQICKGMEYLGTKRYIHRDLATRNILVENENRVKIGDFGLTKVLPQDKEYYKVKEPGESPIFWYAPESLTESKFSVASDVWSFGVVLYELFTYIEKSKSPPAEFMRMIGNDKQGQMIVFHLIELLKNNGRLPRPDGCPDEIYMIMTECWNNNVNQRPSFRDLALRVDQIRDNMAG
Met, sequence (P08581 25-1390): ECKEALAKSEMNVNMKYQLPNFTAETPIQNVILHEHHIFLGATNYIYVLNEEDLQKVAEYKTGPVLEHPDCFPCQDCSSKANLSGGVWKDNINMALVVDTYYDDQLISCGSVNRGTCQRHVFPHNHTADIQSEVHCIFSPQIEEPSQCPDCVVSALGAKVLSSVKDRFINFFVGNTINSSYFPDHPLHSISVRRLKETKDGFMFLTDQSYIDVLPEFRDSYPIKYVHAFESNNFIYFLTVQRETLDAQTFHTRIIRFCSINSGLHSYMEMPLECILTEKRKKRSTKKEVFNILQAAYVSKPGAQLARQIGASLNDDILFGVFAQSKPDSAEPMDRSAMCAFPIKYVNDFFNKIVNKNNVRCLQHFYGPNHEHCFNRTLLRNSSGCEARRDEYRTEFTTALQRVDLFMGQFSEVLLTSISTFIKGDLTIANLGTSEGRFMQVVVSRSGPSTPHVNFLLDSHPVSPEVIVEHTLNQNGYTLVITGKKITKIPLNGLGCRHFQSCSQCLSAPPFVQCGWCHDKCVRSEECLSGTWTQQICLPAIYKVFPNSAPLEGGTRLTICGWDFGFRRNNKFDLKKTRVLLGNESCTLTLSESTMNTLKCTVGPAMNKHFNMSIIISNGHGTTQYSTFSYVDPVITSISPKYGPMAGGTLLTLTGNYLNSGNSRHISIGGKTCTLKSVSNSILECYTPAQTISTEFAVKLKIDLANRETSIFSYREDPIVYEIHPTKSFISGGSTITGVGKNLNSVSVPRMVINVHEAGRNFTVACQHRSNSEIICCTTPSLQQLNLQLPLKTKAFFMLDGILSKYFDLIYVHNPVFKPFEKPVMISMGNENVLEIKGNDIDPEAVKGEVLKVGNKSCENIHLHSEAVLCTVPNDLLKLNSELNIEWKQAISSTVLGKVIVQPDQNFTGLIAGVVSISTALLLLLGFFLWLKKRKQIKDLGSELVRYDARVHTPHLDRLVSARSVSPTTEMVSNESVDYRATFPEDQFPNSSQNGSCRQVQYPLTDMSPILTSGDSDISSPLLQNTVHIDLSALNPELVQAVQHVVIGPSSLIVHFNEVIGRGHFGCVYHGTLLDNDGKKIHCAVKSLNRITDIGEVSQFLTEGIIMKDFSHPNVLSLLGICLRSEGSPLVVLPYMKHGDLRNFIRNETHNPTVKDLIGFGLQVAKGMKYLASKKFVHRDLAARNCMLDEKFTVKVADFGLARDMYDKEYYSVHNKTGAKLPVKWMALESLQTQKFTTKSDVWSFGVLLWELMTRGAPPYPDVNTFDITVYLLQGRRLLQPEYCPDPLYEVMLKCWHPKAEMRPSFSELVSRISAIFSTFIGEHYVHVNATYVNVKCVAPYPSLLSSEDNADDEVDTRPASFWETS

Row | Molecule | relative reporter activity (SRE activity) (HGF-Erk-SRE pathway [1]) | further results
1 | CRQFNRRTHEVWNLDC (disulfide 1-16) [aMD4dY] |  | HGF-like activity (Met agonist) when dimerized (Met): exhibits an HGF-like activity
2 | aMD4dY-PA8-cys-CEBPα: aMD4dY-CEBPα leucine zipper fusion, SEQ ID NO: 49 (protein, aMD4dY-PA8-cys-CEBP; DISULFID 5..20 Disulfide bridge between Cys-5 and Cys-20) MAETCRQFNRRTHEVWNLDCGAAPAAPAPAAGCGGRNVETQQKVLELTSDNDRLRKRVEQLSRELDTLRGIFRQ | found to have signal activation ability | 
3 | TPO-Jun-cys-N11-SecM-GS3: thrombopoietin receptor binding cyclic peptide-leucine zipper fusion, SEQ ID NO: 72 (protein, cyclic peptide disulfide; TPO-Jun-cys-N11-SecM-GS3; DISULFID 5..18 Disulfide bridge between Cys-5 and Cys-18) MAETCADGPTLREWISFCGAAPAAPAPAAGGRIARLEEKVKTLKAQNSELASTANMLREQVAQLKQKVMNGCGGKDHLIHNHHKHEHAHAEHLFSTPVWISQAQGIRAGGSGSGS |  | relative SRE reporter activity (relative receptor activity) (HGF-Erk-SRE pathway [2]): only aMD4dY-Jun-cys-N11-SecM-GS3 showed activity
4 | Jun-cys-PA8-aMD4dY: aMD4dY-leucine zipper fusion, SEQ ID NO: 51 (protein, Jun-cys-PA8-aMD4dY; DISULFID 56..71 Disulfide bridge between Cys-56 and Cys-71) MGRIARLEEKVKTLKAQNSELASTANMLREQVAQLKQKVMNGGCGGAAPAAPAPACRQFNRRTHEVWNLDC | found to have signal activation ability | 
5 | cys-Jun-PA8-aMD4dY: aMD4dY-leucine zipper fusion, SEQ ID NO: 50 (protein, disulfide 55-70) MGGCGGRIARLEEKVKTLKAQNSELASTANMLREQVAQLKQKVMNAAPAAPAPACRQFNRRTHEVWNLDC | found to have signal activation ability | 
6 | EMP-PA8-cys-Jun: EMP-leucine zipper fusion, SEQ ID NO: 67 (protein, EMP-PA8-cys-Jun; DISULFID 7..16 Disulfide bridge between Cys-7 and Cys-16) MGGLYACHMGPMTWVCQPLRGAAPAAPAPAAGCGGRIARLEEKVKTLKAQNSELASTANMLREQVAQLKQKVMN |  | ability to activate EpoR (relative receptor activity, chemiluminescence) (EpoR): activated EpoR
7 | aMD4dY-Jun-cys-N11-SecM-GS3 (designed binder, cyclic peptide part closed by a disulfide bond between its two Cys, In the reporter assays it was a free cell-free translation product) MAETCRQFNRRTHEVWNLDCGAAPAAPAPAAGGRIARLEEKVKTLKAQNSELASTANMLREQVAQLKQKVMNGCGGKDHLIHNHHKHEHAHAEHLFSTPVWISQAQGIRAGGSGSGS |  | binding result [3]: binds
8 | EMP′-Jun-cys-N11-SecM-GS3: erythropoietin receptor binding cyclic peptide (EMP′)-leucine zipper fusion, SEQ ID NO: 73 (protein, cyclic peptide disulfide; EMP'-Jun-cys-N11-SecM-GS3; DISULFID 5..14 Disulfide bridge between Cys-5 and Cys-14) MAETCHMGPMTWVCGAAPAAPAPAAGGRIARLEEKVKTLKAQNSELASTANMLREQVAQLKQKVMNGCGGKDHLIHNHHKHEHAHAEHLFSTPVWISQAQGIRAGGSGSGS |  | relative SRE reporter activity (relative receptor activity) (HGF-Erk-SRE pathway [2]): only aMD4dY-Jun-cys-N11-SecM-GS3 showed activity
9 | aMD4dY-PA8-Jun: aMD4dY-leucine zipper fusion without cysteine residue, SEQ ID NO: 46 (protein, aMD4dY-PA8-Jun; DISULFID 5..20 Disulfide bridge between Cys-5 and Cys-20) MAETCRQFNRRTHEVWNLDCGAAPAAPAPAAGGGRIARLEEKVKTLKAQNSELASTANMLREQVAQLKQKVMN | did not show activity | 
10 | aMD4dY-PA8-cys-Jun: aMD4dY-leucine zipper fusion polypeptide, SEQ ID NO: 45, cell-free expressed, forms disulfide dimer (protein, disulfide dimer; aMD4dY-PA8-cys-Jun; DISULFID 5..20 Disulfide bridge between Cys-5 and Cys-20) MAETCRQFNRRTHEVWNLDCGAAPAAPAPAAGCGGRIARLEEKVKTLKAQNSELASTANMLREQVAQLKQKVMN | showed activity comparable to HGF | 
11 | aMD4dY-PA8-cys-JunΔhep: aMD4dY fusion with c-Jun zipper having heparin binding ability removed, SEQ ID NO: 47 (protein, aMD4dY-PA8-cys-Junhep; DISULFID 5..20 Disulfide bridge between Cys-5 and Cys-20) MAETCRQFNRRTHEVWNLDCGAAPAAPAPAAGCGGQIAQLEEKVQTLQAQNSELASTANMLREQVAQLKQKVMN | activity was also exhibited | 
12 | EMP-Jun-cys-N11-SecM-GS3 (designed binder, cyclic peptide part closed by a disulfide bond between its two Cys, In the PathHunter assay it was a free cell-free translation product) MAETGGLYACHMGPMTWVCQPLRGAAPAAPAPAAGGRIARLEEKVKTLKAQNSELASTANMLREQVAQLKQKVMNGCGGKDHLIHNHHKHEHAHAEHLFSTPVWISQAQGIRAGGSGSGS |  | binding result [4]: binds
